Bounds are passed on as bounds.

The assay deals with Gluc1-E2F4 (human), Q16254. As to the kind of experiment: split reporter (BiFC, NanoBiT); Gaussia princeps protein complementation assay (GPCA): Gluc1 and Gluc2 N-terminal fusions co-transfected in HEK293T, luminescence of lysates after 48 h as normalized luminescence ratio (NLR); pairs count as interacting if NLR is above 5. As to conditions: remark: other sources report otherwise.
Sequence of Gluc1-E2F4 (human), Q16254 (Q16254 whole entry, the tested form may be a part): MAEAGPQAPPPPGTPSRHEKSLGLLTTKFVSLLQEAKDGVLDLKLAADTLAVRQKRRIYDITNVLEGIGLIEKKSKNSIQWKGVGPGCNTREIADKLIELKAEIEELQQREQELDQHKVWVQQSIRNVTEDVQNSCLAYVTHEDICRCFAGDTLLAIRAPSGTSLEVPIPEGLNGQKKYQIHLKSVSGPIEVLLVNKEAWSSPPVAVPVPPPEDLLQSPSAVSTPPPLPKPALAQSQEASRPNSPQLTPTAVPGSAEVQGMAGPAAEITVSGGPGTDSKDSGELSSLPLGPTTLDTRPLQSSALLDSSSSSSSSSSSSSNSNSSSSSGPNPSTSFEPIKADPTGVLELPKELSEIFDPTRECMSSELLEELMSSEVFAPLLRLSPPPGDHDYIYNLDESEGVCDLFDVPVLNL

B1: Gluc2-p130, Q08999 1-1139 (natural protein)
chain: MPSGGDQSPPPPPPPPAAAASDEEEEDDGEAEDAAPPAESPTPQIQQRFDELCSRLNMDEAARAEAWDSYRSMSESYTLEGNDLHWLACALYVACRKSVPTVSKGTVEGNYVSLTRILKCSEQSLIEFFNKMKKWEDMANLPPHFRERTERLERNFTVSAVIFKKYEPIFQDIFKYPQEEQPRQQRGRKQRRQPCTVSEIFHFCWVLFIYAKGNFPMISDDLVNSYHLLLCALDLVYGNALQCSNRKELVNPNFKGLSEDFHAKDSKPSSDPPCIIEKLCSLHDGLVLEAKGIKEHFWKPYIRKLYEKKLLKGKEENLTGFLEPGNFGESFKAINKAYEEYVLSVGNLDERIFLGEDAEEEIGTLSRCLNAGSGTETAERVQMKNILQQHFDKSKALRISTPLTGVRYIKENSPCVTPVSTATHSLSRLHTMLTGLRNAPSEKLEQILRTCSRDPTQAIANRLKEMFEIYSQHFQPDEDFSNCAKEIASKHFRFAEMLYYKVLESVIEQEQKRLGDMDLSGILEQDAFHRSLLACCLEVVTFSYKPPGNFPFITEIFDVPLYHFYKVIEVFIRAEDGLCREVVKHLNQIEEQILDHLAWKPESPLWEKIRDNENRVPTCEEVMPPQNLERADEICIAGSPLTPRRVTEVRADTGGLGRSITSPTTLYDRYSSPPASTTRRRLFVENDSPSDGGTPGRMPPQPLVNAVPVQNVSGETVSVTPVPGQTLVTMATATVTANNGQTVTIPVQGIANENGGITFFPVQVNVGGQAQAVTGSIQPLSAQALAGSLSSQQVTGTTLQVPGQVAIQQISPGGQQQKQGQSVTSSSNRPRKTSSLSLFFRKVYHLAAVRLRDLCAKLDISDELRKKIWTCFEFSIIQCPELMMDRHLDQLLMCAIYVMAKVTKEDKSFQNIMRCYRTQPQARSQVYRSVLIKGKRKRRNSGSSDSRSHQNSPTELNKDRTSRDSSPVMRSSSTLPVPQPSSAPPTPTRLTGANSDMEEEERGDLIQFYNNIYIKQIKTFAMKYSQANMDAPPLSPYPFVRTGSPRRIQLSQNHPVYISPHKNETMLSPREKIFYYFSNSPSKRLREINSMIRTGETPTKKRGILLEDGSESPAKRICPENHSALLRRLQDVANDRGSH
B1: the normalized luminescence ratio (NLR) is more than 40.
